Legend:
[1] = molecular target: T1, murine K12, full length, on transfected cells (mouse, UniProt Q9JL59 29-212); experiment: Fc fusion binding to transfected cells, detected with 125I anti-human Fc
T1 construct: also called mouse K12; murine homologue of K12
T1 sequence: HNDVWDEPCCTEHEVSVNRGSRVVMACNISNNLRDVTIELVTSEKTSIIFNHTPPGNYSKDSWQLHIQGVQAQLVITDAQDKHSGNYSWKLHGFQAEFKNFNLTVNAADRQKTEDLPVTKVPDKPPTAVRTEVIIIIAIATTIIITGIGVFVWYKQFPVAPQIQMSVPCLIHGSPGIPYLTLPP

[2] = molecular target: T2, human K12, full length, on transfected cells (human, UniProt Q8WVN6 29-248); experiment: as above
T2 construct: also called SECTM1
T2 sequence: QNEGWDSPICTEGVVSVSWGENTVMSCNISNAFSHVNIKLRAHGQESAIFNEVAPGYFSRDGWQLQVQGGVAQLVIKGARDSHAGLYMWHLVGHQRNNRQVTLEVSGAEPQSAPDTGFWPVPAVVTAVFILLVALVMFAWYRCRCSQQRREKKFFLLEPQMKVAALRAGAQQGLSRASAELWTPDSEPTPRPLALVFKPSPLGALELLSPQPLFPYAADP

[3] = molecular target: T3, human CD7, full length, on cells (human, UniProt P09564 26-240); experiment: preliminary cell binding experiments on Jurkat and KG-1 cells
T3 construct: On transfected COS-1 or CV-1/EBNA cells, and endogenous on Jurkat, KG-1 and NK cells; also called HuCD7
T3 sequence: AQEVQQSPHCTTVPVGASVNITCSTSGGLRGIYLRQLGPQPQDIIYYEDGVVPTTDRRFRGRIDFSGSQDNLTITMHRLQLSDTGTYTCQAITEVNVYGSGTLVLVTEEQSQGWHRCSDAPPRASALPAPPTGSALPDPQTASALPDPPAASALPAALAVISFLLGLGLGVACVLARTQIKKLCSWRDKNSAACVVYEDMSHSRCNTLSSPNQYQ

[4] = molecular target: T4, murine CD7, full length, on cells (mouse, UniProt P50283 24-210); experiment: HuK12-Fc on transfected COS-1 cells, 125I anti-human Fc, phosphorimager
T4 construct: On transfected COS-1 cells; For the proliferation read-out it is endogenous on BALB/c lymph node cells; also called MuCD7; mouse CD7
T4 chain: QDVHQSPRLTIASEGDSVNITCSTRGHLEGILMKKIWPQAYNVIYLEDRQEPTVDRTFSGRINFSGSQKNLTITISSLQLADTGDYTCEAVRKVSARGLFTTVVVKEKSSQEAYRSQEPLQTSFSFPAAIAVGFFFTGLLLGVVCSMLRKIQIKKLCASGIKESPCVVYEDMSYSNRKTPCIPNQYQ
Experimental: COS-1 cells were transfected with an expression vector encoding full length HuCD7 (human CD7), HuCD7-TR (human CD7 containing an internal deletion of the 36 amino acid tandem repeat), MuCD7 and vector only cDNA using DEAE-Dextran. However, any of a large number of expression vectors that are commercially available from numerous companies (e.g., Clontech Inc., Palo Alto, Calif.) could also be used to express the desired cDNAs. Two days post transfection the cells were assayed for the capacity to bind HuK12-Fc as previously described for other Fc fusion proteins (Lyman et al.,1993, Cell 75:1157-1167) with the following modifications. The binding media (RPMI 1640, 1%FBS, 0.02% NaAzide, 20 mM HEPES, pH7.2) was modified to include […] MnCl₂. In some experiments, the transfected cells were incubated with zero, 20 ug/ml or 2 mg/ml of Con A in BM/MM prior to binding with the Fc proteins. Following incubation for 30 minutes at room temperature and the continued presence of Con A, 1 ug/ml of either HuK12-Fc or MuK12-Fc was then added to the appropriate slides. Binding of the Fc protein was detected with [¹²⁵I] mouse anti-Human Fc antibody as previously described (Lyman, 1993). After binding the iodinated antibody, the cells were washed and then the radioactivity was quantitated by Storm Phosphorimager. […]

[5] = molecular target: T3, human CD7, full length, on cells; experiment: Fc fusion binding to transfected cells (Example 5)

B1: human CD7-Fc fusion protein (Fc fusion)
chain: AQEVQQSPHCTTVPVGASVNITCSTSGGLRGIYLRQLGPQPQDIIYYEDGVVPTTDRRFRGRIDFSGSQDNLTITMHRLQLSDTGTYTCQAITEVNVYGSGTLVLVTEEQSQGWHRCSDAPPRASALPAPPTGSALPDPQTASALPDPPAASALP
notes: not shown: Fc portion of the CD7-Fc fusion is not described
binding result [1]: no binding

B2: murine CD7-Fc fusion protein (Fc fusion)
chain: QDVHQSPRLTIASEGDSVNITCSTRGHLEGILMKKIWPQAYNVIYLEDRQEPTVDRTFSGRINFSGSQKNLTITISSLQLADTGDYTCEAVRKVSARGLFTTVVVKEKSSQEAYRSQEPLQTSFSFP
notes: also called mouse CD7-Fc; not shown: Fc portion of the CD7-Fc fusion is not described
binding result [2]: no binding

B3: human K12-Fc fusion protein (extracellular domain of human K12 fused to the Fc portion of human IgG1) (Fc fusion)
chain: QNEGWDSPICTEGVVSVSWGENTVMSCNISNAFSHVNIKLRAHGQESAIFNEVAPGYFSRDGWQLQVQGGVAQLVIKGARDSHAGLYMWHLVGHQRNNRQVTLEVSGAEPQSAPDTG
notes: Exists as a dimer in solution; No linker or junction is described; also called HuK12-Fc; HuK12Fc; not shown: Fc portion of human IgG1, as described in U.S. Pat. No. 5,457,035
Ka [3]: ~1e+08 M⁻¹
fold less binding than to full length HuCD7 [4]: ~4 fold

B4: mouse K12-Fc fusion protein (extracellular domain of murine K12 fused to the Fc portion of human IgG1) (Fc fusion)
chain: HNDVWDEPCCTEHEVSVNRGSRVVMACNISNNLRDVTIELVTSEKTSIIFNHTPPGNYSKDSWQLHIQGVQAQLVITDAQDKHSGNYSWKLHGFQAEFKNFNLTVNAADRQKTEDLPVTKVPDKPPTAVRTE
notes: Exists as a dimer in solution; also called MuK12-Fc; not shown: Fc portion of human IgG1, as described in U.S. Pat. No. 5,457,035
binding result [5]: no binding

Reference: patent US20020141999A1 (IMMUNEX, published 2002)
